Starred links: 1 amine or outer side, 2 acyl side, 3 side chain; linkers in the order of their positions; H or OH if unused. Non-standard residues stand in square brackets, D forms with d. Groups on a side chain read outwards from the residue. No end group written: not given here. *: point of attachment. C16 diacid = O=C(O)CCCCCCCCCCCCCCC(=O)*; γGlu = O=C(O)[C@H](CCC(=O)[*:2])N[*:1]; Aib = CC(C)(N)C(=O)O
T1: human GIP receptor (human, UniProt P48546 22-466)
T1 sequence (looked up): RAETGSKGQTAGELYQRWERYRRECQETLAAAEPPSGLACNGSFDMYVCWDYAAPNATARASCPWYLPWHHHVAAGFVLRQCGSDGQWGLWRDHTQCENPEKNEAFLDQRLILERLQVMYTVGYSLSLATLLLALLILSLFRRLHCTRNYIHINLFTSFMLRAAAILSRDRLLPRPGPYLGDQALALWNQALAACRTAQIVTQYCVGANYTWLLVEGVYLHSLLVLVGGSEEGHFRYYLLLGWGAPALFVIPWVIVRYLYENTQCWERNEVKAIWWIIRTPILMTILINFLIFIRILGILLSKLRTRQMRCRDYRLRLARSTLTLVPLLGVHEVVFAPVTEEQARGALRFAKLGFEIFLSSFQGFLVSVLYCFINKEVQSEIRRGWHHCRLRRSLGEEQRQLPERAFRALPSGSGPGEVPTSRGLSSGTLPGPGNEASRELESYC

B1: AT720 (peptide)
peptide: EGTFISEYSI[Aib]LEKIK([Aib-C16 diacid])QQEFVEWLLAQKPSSGAPPPS-OH
modifications: N-terminus assumed
SMILES: CC[C@H](C)[C@H](NC(=O)[C@H](CCCCN)NC(=O)[C@H](CCC(=O)O)NC(=O)[C@H](CC(C)C)NC(=O)C(C)(C)NC(=O)[C@@H](NC(=O)[C@H](CO)NC(=O)[C@H](Cc1ccc(O)cc1)NC(=O)[C@H](CCC(=O)O)NC(=O)[C@H](CO)NC(=O)[C@@H](NC(=O)[C@H](Cc1ccccc1)NC(=O)[C@@H](NC(=O)CNC(=O)[C@@H](N)CCC(=O)O)[C@@H](C)O)[C@@H](C)CC)[C@@H](C)CC)C(=O)N[C@@H](CCCCNC(=O)C(C)(C)NC(=O)CCCCCCCCCCCCCCC(=O)O)C(=O)N[C@@H](CCC(N)=O)C(=O)N[C@@H](CCC(N)=O)C(=O)N[C@@H](CCC(=O)O)C(=O)N[C@@H](Cc1ccccc1)C(=O)N[C@H](C(=O)N[C@@H](CCC(=O)O)C(=O)N[C@@H](Cc1c[nH]c2ccccc12)C(=O)N[C@@H](CC(C)C)C(=O)N[C@@H](CC(C)C)C(=O)N[C@@H](C)C(=O)N[C@@H](CCC(N)=O)C(=O)N[C@@H](CCCCN)C(=O)N1CCC[C@H]1C(=O)N[C@@H](CO)C(=O)N[C@@H](CO)C(=O)NCC(=O)N[C@@H](C)C(=O)N1CCC[C@H]1C(=O)N1CCC[C@H]1C(=O)N1CCC[C@H]1C(=O)N[C@@H](CO)C(=O)O)C(C)C
B2: AT721 (peptide)
peptide: EGTFISEYSI[Aib]LEKIK([γGlu-C16 diacid])QQEFVEWLLAQKPSSGAPPPS-OH
modifications: N-terminus assumed
SMILES: CC[C@H](C)[C@H](NC(=O)[C@H](CCCCN)NC(=O)[C@H](CCC(=O)O)NC(=O)[C@H](CC(C)C)NC(=O)C(C)(C)NC(=O)[C@@H](NC(=O)[C@H](CO)NC(=O)[C@H](Cc1ccc(O)cc1)NC(=O)[C@H](CCC(=O)O)NC(=O)[C@H](CO)NC(=O)[C@@H](NC(=O)[C@H](Cc1ccccc1)NC(=O)[C@@H](NC(=O)CNC(=O)[C@@H](N)CCC(=O)O)[C@@H](C)O)[C@@H](C)CC)[C@@H](C)CC)C(=O)N[C@@H](CCCCNC(=O)CC[C@H](NC(=O)CCCCCCCCCCCCCCC(=O)O)C(=O)O)C(=O)N[C@@H](CCC(N)=O)C(=O)N[C@@H](CCC(N)=O)C(=O)N[C@@H](CCC(=O)O)C(=O)N[C@@H](Cc1ccccc1)C(=O)N[C@H](C(=O)N[C@@H](CCC(=O)O)C(=O)N[C@@H](Cc1c[nH]c2ccccc12)C(=O)N[C@@H](CC(C)C)C(=O)N[C@@H](CC(C)C)C(=O)N[C@@H](C)C(=O)N[C@@H](CCC(N)=O)C(=O)N[C@@H](CCCCN)C(=O)N1CCC[C@H]1C(=O)N[C@@H](CO)C(=O)N[C@@H](CO)C(=O)NCC(=O)N[C@@H](C)C(=O)N1CCC[C@H]1C(=O)N1CCC[C@H]1C(=O)N1CCC[C@H]1C(=O)N[C@@H](CO)C(=O)O)C(C)C
B3: AT722 (peptide)
peptide: EGTFISEYSI[Aib]LEKIK([Ser-Gly-Gly-Gly-Gly-C16 diacid])QQEFVEWLLAQKPSSGAPPPS-OH
modifications: N-terminus assumed
SMILES: CC[C@H](C)[C@H](NC(=O)[C@H](CCCCN)NC(=O)[C@H](CCC(=O)O)NC(=O)[C@H](CC(C)C)NC(=O)C(C)(C)NC(=O)[C@@H](NC(=O)[C@H](CO)NC(=O)[C@H](Cc1ccc(O)cc1)NC(=O)[C@H](CCC(=O)O)NC(=O)[C@H](CO)NC(=O)[C@@H](NC(=O)[C@H](Cc1ccccc1)NC(=O)[C@@H](NC(=O)CNC(=O)[C@@H](N)CCC(=O)O)[C@@H](C)O)[C@@H](C)CC)[C@@H](C)CC)C(=O)N[C@@H](CCCCNC(=O)[C@H](CO)NC(=O)CNC(=O)CNC(=O)CNC(=O)CNC(=O)CCCCCCCCCCCCCCC(=O)O)C(=O)N[C@@H](CCC(N)=O)C(=O)N[C@@H](CCC(N)=O)C(=O)N[C@@H](CCC(=O)O)C(=O)N[C@@H](Cc1ccccc1)C(=O)N[C@H](C(=O)N[C@@H](CCC(=O)O)C(=O)N[C@@H](Cc1c[nH]c2ccccc12)C(=O)N[C@@H](CC(C)C)C(=O)N[C@@H](CC(C)C)C(=O)N[C@@H](C)C(=O)N[C@@H](CCC(N)=O)C(=O)N[C@@H](CCCCN)C(=O)N1CCC[C@H]1C(=O)N[C@@H](CO)C(=O)N[C@@H](CO)C(=O)NCC(=O)N[C@@H](C)C(=O)N1CCC[C@H]1C(=O)N1CCC[C@H]1C(=O)N1CCC[C@H]1C(=O)N[C@@H](CO)C(=O)O)C(C)C
B4: AT719 (peptide)
peptide: EGTFISDYSIAMDKIK(C16 diacid)QQDFVNWLLAQK-OH
modifications: N-terminus assumed
SMILES: CC[C@H](C)[C@H](NC(=O)[C@H](CO)NC(=O)[C@H](Cc1ccc(O)cc1)NC(=O)[C@H](CC(=O)O)NC(=O)[C@H](CO)NC(=O)[C@@H](NC(=O)[C@H](Cc1ccccc1)NC(=O)[C@@H](NC(=O)CNC(=O)[C@@H](N)CCC(=O)O)[C@@H](C)O)[C@@H](C)CC)C(=O)N[C@@H](C)C(=O)N[C@@H](CCSC)C(=O)N[C@@H](CC(=O)O)C(=O)N[C@@H](CCCCN)C(=O)N[C@H](C(=O)N[C@@H](CCCCNC(=O)CCCCCCCCCCCCCCC(=O)O)C(=O)N[C@@H](CCC(N)=O)C(=O)N[C@@H](CCC(N)=O)C(=O)N[C@@H](CC(=O)O)C(=O)N[C@@H](Cc1ccccc1)C(=O)N[C@H](C(=O)N[C@@H](CC(N)=O)C(=O)N[C@@H](Cc1c[nH]c2ccccc12)C(=O)N[C@@H](CC(C)C)C(=O)N[C@@H](CC(C)C)C(=O)N[C@@H](C)C(=O)N[C@@H](CCC(N)=O)C(=O)N[C@@H](CCCCN)C(=O)O)C(C)C)[C@@H](C)CC
B5: AT739 (peptide)
peptide: EGTFISDYSK(C16 diacid)AMDKIHQQDFVEWLLAQKPSSGAPPPS-OH
modifications: N-terminus assumed
SMILES: CC[C@H](C)[C@H](NC(=O)[C@H](CCCCN)NC(=O)[C@H](CC(=O)O)NC(=O)[C@H](CCSC)NC(=O)[C@H](C)NC(=O)[C@H](CCCCNC(=O)CCCCCCCCCCCCCCC(=O)O)NC(=O)[C@H](CO)NC(=O)[C@H](Cc1ccc(O)cc1)NC(=O)[C@H](CC(=O)O)NC(=O)[C@H](CO)NC(=O)[C@@H](NC(=O)[C@H](Cc1ccccc1)NC(=O)[C@@H](NC(=O)CNC(=O)[C@@H](N)CCC(=O)O)[C@@H](C)O)[C@@H](C)CC)C(=O)N[C@@H](Cc1c[nH]cn1)C(=O)N[C@@H](CCC(N)=O)C(=O)N[C@@H](CCC(N)=O)C(=O)N[C@@H](CC(=O)O)C(=O)N[C@@H](Cc1ccccc1)C(=O)N[C@H](C(=O)N[C@@H](CCC(=O)O)C(=O)N[C@@H](Cc1c[nH]c2ccccc12)C(=O)N[C@@H](CC(C)C)C(=O)N[C@@H](CC(C)C)C(=O)N[C@@H](C)C(=O)N[C@@H](CCC(N)=O)C(=O)N[C@@H](CCCCN)C(=O)N1CCC[C@H]1C(=O)N[C@@H](CO)C(=O)N[C@@H](CO)C(=O)NCC(=O)N[C@@H](C)C(=O)N1CCC[C@H]1C(=O)N1CCC[C@H]1C(=O)N1CCC[C@H]1C(=O)N[C@@H](CO)C(=O)O)C(C)C
B6: AT725 (peptide)
peptide: EGTFISEYSI[Aib]LEKIK([Ala-Glu-Leu-Ala-C16 diacid])QQEFVEWLLAQKPSSGAPPPS-OH
B7: AT724 (peptide)
peptide: EGTFISEYSI[Aib]LEKIK([Lys-Ala-Ala-Ala-Glu-Lys-Ala-Ala-Ala-Glu-Lys-Ala-Ala-Ala-Glu-C16 diacid])QQEFVEWLLAQKPSSGAPPPS-OH
modifications: not fully specified
B8: AT740 (peptide)
peptide: EGTFISDYSIK(C16 diacid)MDKIHQQDFVEWLLAQKPSSGAPPPS-OH
modifications: N-terminus assumed
SMILES: CC[C@H](C)[C@H](NC(=O)[C@H](CCCCN)NC(=O)[C@H](CC(=O)O)NC(=O)[C@H](CCSC)NC(=O)[C@H](CCCCNC(=O)CCCCCCCCCCCCCCC(=O)O)NC(=O)[C@@H](NC(=O)[C@H](CO)NC(=O)[C@H](Cc1ccc(O)cc1)NC(=O)[C@H](CC(=O)O)NC(=O)[C@H](CO)NC(=O)[C@@H](NC(=O)[C@H](Cc1ccccc1)NC(=O)[C@@H](NC(=O)CNC(=O)[C@@H](N)CCC(=O)O)[C@@H](C)O)[C@@H](C)CC)[C@@H](C)CC)C(=O)N[C@@H](Cc1c[nH]cn1)C(=O)N[C@@H](CCC(N)=O)C(=O)N[C@@H](CCC(N)=O)C(=O)N[C@@H](CC(=O)O)C(=O)N[C@@H](Cc1ccccc1)C(=O)N[C@H](C(=O)N[C@@H](CCC(=O)O)C(=O)N[C@@H](Cc1c[nH]c2ccccc12)C(=O)N[C@@H](CC(C)C)C(=O)N[C@@H](CC(C)C)C(=O)N[C@@H](C)C(=O)N[C@@H](CCC(N)=O)C(=O)N[C@@H](CCCCN)C(=O)N1CCC[C@H]1C(=O)N[C@@H](CO)C(=O)N[C@@H](CO)C(=O)NCC(=O)N[C@@H](C)C(=O)N1CCC[C@H]1C(=O)N1CCC[C@H]1C(=O)N1CCC[C@H]1C(=O)N[C@@H](CO)C(=O)O)C(C)C

Molecular target: T1, human GIP receptor
Experiment: cell-based or functional assay

Row | Binder | nM (Kb, Gaddum assay, cAMP) | pKb (Gaddum assay, cAMP)
1 | B1 | 0.29 nM | 9.5
2 | B2 | 0.31 nM | 9.5
3 | B3 | 0.28 nM | 9.6
4 | B4 | 7.6 nM | 8.1
5 | B5 | 11 nM | 7.9
6 | B6 | 0.6 nM | 9.2
7 | B7 | 0.31 nM | 9.5
8 | B8 | 14 nM | 7.9

From patent US20230416330A1, “Optimized GIP Peptide Analogues” (Antag Therapeutics ApS, priority 2019, published 2023)
